Where no end group is shown, it is not given here.

The text below walks through data of US20200123212A1 (3M INNOVATIVE PROPERTIES, published 2020).

The target of assay [1] is T1, Recombinant Human Epidermal Growth Factor (EGF) (human, UniProt P01133 971-1023).
T1 construct: Bought reagent; also called EGF protein
Kind of assay: dot blot, EGF spotted on nitrocellulose, biotinylated peptide in solution, detected with Streptavidin-HRP. As for the experimental part: EGF (1 microliter of a 10 nM solution in PBS was spotted a nitrocellulose membrane (obtained from Thermo Fisher Scientific) and the membrane was dried in air for about 30 minutes. The membrane was then incubated in 15 mL of blocking buffer (3 wt. % BSA in PBS) for one hour at room temperature. The membrane was washed three times (15 minutes for each wash) with 15 mL portions of fresh PBST. The washed membrane was incubated with Biotinylated SEQ ID NO: 1 [10 mL of a 10 ng/mL solution in blocking buffer (3 wt. % BSA in PBS)] with gentle agitation for one hour. The membrane was again washed three times (15 minutes for each wash) with 15 mL portions of fresh PBST. The washed membrane was incubated with Streptavidin-HRP [1:5000 dilution in 10 mL of the blocking buffer (3 wt. % BSA in PBS)] for 30 minutes with gentle agitation. Following the incubation, the membrane was washed three times (15 minutes for each wash) with 15 mL portions of fresh PBST. The washed membrane was incubated with 10 mL of the development solution for horseradish peroxidase (TMB-Blotting Substrate Solution, Pierce-Fisher Scientific) with gentle agitation. The color development was stopped by adding water. A dark spot developed at the application site on the membrane indicating affinity of SEQ ID NO: 1 for EGF.

In assay [2] the target is T2, Recombinant Human Tumor Necrosis Factor-alpha (TNF-alpha) (human, UniProt P01375 77-233).
T2 construct: Bought reagent; also called TNFα
Kind of assay: SPR (Test Method A of Example 3), peptide immobilised, TNF-alpha injected. As for the experimental part:
(§1) The following Test Method A was used for determining the binding affinity (KD) of SEQ ID NO: 1 for EGF and TNF-[…] Binding experiments were performed using Biacore 3000 optical biosensors equipped with research-grade CM5 sensor chips (GE Healthcare Bio-Sciences Corporation). The reagents used for the amine-coupling steps [(1-ethyl-3-(3-dimethylaminopropyl)-carbodiimide (EDC); N-hydroxysuccinimide (NHS); and ethanolamine hydrochloride-NaOH (1 M, pH 8.5)] were obtained from GE Healthcare Bio-Sciences Corporation. In order to efficiently immobilize the peptide on the sensor chips, a modified version of SEQ ID NO:1 was prepared by SPPS in which a “CK” amino acid linker sequence was added to the N-terminal end of the SEQ ID NO: 1 peptide (i.e. linker modified version of SEQ ID NO: 1 for immobilization being […]). A standard coupling protocol was employed to immobilize the linker modified version of SEQ ID NO: 1 via the lysine residue. The immobilization was performed at 25° C. using HBS-EP as the running buffer. The CM-dextran surfaces of the sensor chip flow cells were activated by a seven minute injection (20 microliters/minute) of freshly prepared 1:1 50 mM NHS: 200 mM EDC. A solution of linker modified SEQ ID NO: 1 in acetic acid (20 mM, pH 5.5) was injected to target 200 response units (RU). […]

Assay [3] concerns the target T1, Recombinant Human Epidermal Growth …. In words: SPR (Test Method A of Example 3), peptide immobilised, EGF injected. As for the experimental part:
as §1

Assay [4] shares this target. In words: SPR (Biacore 3000, CM5), peptide immobilised, EGF injected at 62.5-1000 nM, 25 C, 1:1 Langmuir global fit. As for the experimental part:
as §1

The target in assay [5] is T2, Recombinant Human Tumor Necrosis …. In words: SPR (Biacore 3000, CM5), peptide immobilised, TNF-alpha injected at 62.5-1000 nM, 25 C, 1:1 Langmuir global fit. As for the experimental part: as §1
Assay [6] has as its target T1, Recombinant Human Epidermal Growth …. In words: dot blot, peptide spotted on nitrocellulose, EGF in solution, detected with anti-EGF-IgG-HRP. As for the experimental part:
SEQ ID NO: 1 (1 microliter of a 10 nM solution in PBS containing 3 wt. % DMSO) and SEQ ID NO: 2 (1 microliter of a 10 nM solution in PBS containing 3 wt. % DMSO) were individually spotted at separate sites on a nitrocellulose membrane (obtained from Thermo Fisher Scientific, Waltham, Mass.) and the membrane was dried in air for about 30 minutes. The membrane was then incubated in 25 mL of blocking buffer (3 wt. % BSA in PBS) for one hour at room temperature. The membrane was washed three times (15 minutes for each wash) with 15 mL portions of fresh PBST. The washed membrane was incubated with EGF protein [10 microliters of a 100 ng/mL solution in blocking buffer (3 wt. % BSA in PBS)] with gentle agitation for one hour. The membrane was again washed three times (15 minutes for each wash) with 15 mL portions of fresh PBST. The washed membrane was incubated with anti-EGF-IgG-HRP [1:5000 dilution in 10 mL of the blocking buffer (3 wt. % BSA in PBS)] for one hour with gentle agitation. Following the incubation, the membrane was washed three times (15 minutes for each wash) with 15 mL portions of fresh PBST. The washed membrane was incubated with 10 mL of the development solution for horseradish peroxidase (TMB-Blotting Substrate Solution, Pierce-Fisher Scientific, Rockford, Ill.) with gentle agitation. The color development was stopped by adding water.

T1 sequence (P01133 971-1023 limits assumed): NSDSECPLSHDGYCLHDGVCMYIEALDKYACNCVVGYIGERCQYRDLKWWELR
T2 sequence (P01375 77-233 limits assumed): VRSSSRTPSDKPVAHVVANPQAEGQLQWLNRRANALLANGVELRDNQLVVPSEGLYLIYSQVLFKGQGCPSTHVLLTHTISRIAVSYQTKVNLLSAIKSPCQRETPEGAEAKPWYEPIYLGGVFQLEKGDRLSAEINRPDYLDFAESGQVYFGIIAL

Consider WFEWPYWEMNVPDVWN (also: biotinylated, site not given here) [Biotinylated SEQ ID NO: 1], for which the binding result in assay [1] is given as “binds”.

B1: linker modified version of SEQ ID NO: 2 (CKWFEWPYWE) (peptide)
peptide: CKWFEWPYWE
modifications: also: immobilised on CM5 sensor chip via Lys of linker, conjugated to iodoacetyl magnetic beads via Cys of linker
Take B1: the dissociation constant (Kd) came out at 340 µM in assay [2] and 0.466 µM in assay [3]. Take CKWFEWPYWEMNVPDVWN (also: amine-coupled to CM5 sensor chip via Lys of CK linker) [linker modified version of SEQ ID NO: 1 (CKWFEWPYWEMNVPDVWN)]: the results for the Kd in assay [4] and in assay [5] were 0.087 µM and 75.1 µM, respectively. Turning to Ac-WFEWPYWEMNVPDVWN-NH2 (Chemically synthesised (SPPS)) [peptide SEQ ID NO: 1 (WFEWPYWEMNVPDVWN)], the binding result in assay [6] is “binds”. Consider Ac-WFEWPYWE-NH2 (Chemically synthesised (SPPS)) [peptide SEQ ID NO: 2 (WFEWPYWE)], for which, in assay [6], the binding result is “binds”.
